# From US20210347868A1 (published 2021)
# Experiments:
# [1] = molecular target: T1, biotinylated alpha-synuclein peptide, residues 111-140 (human, biotinylated (position not given)); experiment: Octet biolayer interferometry, biotinylated peptide on streptavidin biosensor
# T1 construct: also called syn111-140
# [2] = molecular target: T2, biotinylated alpha-synuclein peptide, residues 121-140 (human, biotinylated (position not given)); experiment: Octet biolayer interferometry; table of peptide regions bound by anti-synuclein mAbs
# T2 construct: also called syn121-140
# [3] = molecular target: full-length (140 amino acid) human alpha-synuclein with C-terminal AviTag, biotinylated, his-tag removed by … (human, UniProt P37840 1-140); experiment: isothermal titration calorimetry in PBS, antibody:synuclein (1:2) model; Kd only on the graph
# Protocol: FIGS. 5A-5C show affinity binding of human anti-synuclein antibodies for full-length synuclein protein as determined by isothermal titration calorimetry (ITC). […] The thermodynamic parameters and the equilibrium dissociation constants, Kd, were determined upon fitting the ITC data to a model assuming a single set of binding sites corresponding to an antibody:synuclein (1:2) binding model. Continuous lines represent the best fit of experimental data assuming a single set of binding sites. Experiments were performed in PBS. Equilibrium dissociation constants (Kd) are shown on the individual graphs.
# The affinities of antibodies for full length synuclein protein were determined in solution on a MicroCal Auto-iTC200 system (Malvern Panalystical; Malvern, United Kingdom). […] The thermodynamic parameters and the equilibrium dissociation constants, Kd, were determined upon fitting the ITC data to a model assuming a single set of binding sites corresponding to an antibody:synuclein (1:2) binding model (FIG. 5).
binding result [1],binding result [2],binding result [3],Binder
binds,binds,binds,"human anti-alpha-synuclein antibody 323.1 (hantiAsyn-323.1) (antibody, V domains shown) VH: EVQLLESGGGLVQPGGSLKLSCAASGFTFSASAMHWVRQTSDKRLEWVGRIRNKANNYATAYAASVKGRFTISRDDSKNTAYLQMNSLKTEDTAVYYCTRHLSLGGNSVDYWGQGTPVTVSS VL: DVVMTQSPLSSPVTLGQPASISCRASQSPVHSDGNTYLSWLQQRPGQPPRLLIYTISNRFPGVPDRFSGSGAGTDFTLRISRVEAEDVGVYYCMQGTQFPYTFGQGTKLEIK"
binds,,binds,"human anti-alpha-synuclein antibody 336.1 (hantiAsyn-336.1) (antibody, V domains shown) VH: EVQLVQSGGTLVQPGGSLRLSCAASGFTFSTYAISWVRQAPGRGLEWVSFITGDGSRILYADSVRGRFSISRDNSKNTLYLQMNSLRTDDTAMYYCVFNHYWGQGTLVTVSS VL: AIQLTQSPDSLAVSLGERATINCKASQSLLYSSNNRNYLAWYQQKPGQPPKALIYWASTRESGVPDRFSGSGSGTDFTLTISSLQAEDVAVYYCHQYYTTHSFGQGTKLEIK"
